Data as given in patent US20220389379A1, “PRIMARY BREAST EPITHELIAL CELL CULTURE MEDIUM, CULTURE METHOD AND USE THEREOF” (PRECEDO PHARMACEUTICALS CO., LTD, priority 2019, published 2022).

B1: R-spondin3: R-spondin family protein, medium additive (protein, UniProt Q9BXY4 22-272, looked up)
R-spondin-3: QNASRGRRQRRMHPNVSQGCQGGCATCSDYNGCLSCKPRLFFALERIGMKQIGVCLSSCPSGYYGTRYPDINKCTKCKADCDTCFNKNFCTKCKSGFYLHLGKCLDNCPEGLEANNHTMECVSIVHCEVSEWNPWSPCTKKGKTCGFKRGTETRVREIIQHPSAKGNLCPPTNETRKCTVQRKKCQKGERGKKGRERKRKKPNKGESKEAIPDSKSLESSKEIPEQRENKQQQKKRKVQDKQKSVSVSTVH
B2: Interleukin 10: medium additive (R&D) (protein, UniProt P22301 19-178, looked up)
Interleukin-10: SPGQGTQSENSCTHFPGNLPNMLRDLRDAFSRVKTFFQMKDQLDNLLLKESLLEDFKGYLGCQALSEMIQFYLEEVMPQAENQDPDIKAHVNSLGENLKTLRLRLRRCHRFLPCENKSKAVEQVKNAFNKLQEKGIYKAMSEFDIFINYIEAYMTMKIRN
B3: Fibroblast growth factor 10: fibroblast growth factor 10 (FGF10), medium additive (protein, UniProt O15520 38-208, looked up)
Fibroblast growth factor 10: QALGQDMVSPEATNSSSSSFSSPSSAGRHVRSYNHLQGDVRWRKLFSFTKYFLKIEKNGKVSGTKKENCPYSILEITSVEIGVVAVKAINSNYYLAMNKKGKLYGSKEFNNDCKLKERIEENGYNTYASFNWQHNGRQMYVALNGKGAPRRGQKTRRKNTSAHFLPMVVHS
B4: Fibroblast growth factor 7: fibroblast growth factor 7 (FGF7), medium additive (protein, UniProt P21781 32-194, looked up)
Fibroblast growth factor 7: CNDMTPEQMATNVNCSSPERHTRSYDYMEGGDIRVRRLFCRTQWYLRIDKRGKVKGTQEMKNNYNIMEIRTVAVGIVAIKGVESEFYLAMNKEGKLYAKKECNEDCNFKELILENHYNTYASAKWTHNGGEMFVALNQKGIPVRGKKTKKEQKTAHFLPMAIT
B5: R-spondin1: R-spondin family protein, medium additive (protein, UniProt Q2MKA7 21-263, looked up)
R-spondin-1: SRGIKGKRQRRISAEGSQACAKGCELCSEVNGCLKCSPKLFILLERNDIRQVGVCLPSCPPGYFDARNPDMNKCIKCKIEHCEACFSHNFCTKCKEGLYLHKGRCYPACPEGSSAANGTMECSSPAQCEMSEWSPWGPCSKKQQLCGFRRGSEERTRRVLHAPVGDHAACSDTKETRRCTVRRVPCPEGQKRRKGGQGRRENANRNLARKESKEAGAGSRRRKGQQQQQQQGTVGPLTSAGPA
B6: Noggin: medium additive (R&D) (protein, UniProt Q13253 28-232, looked up)
Noggin: QHYLHIRPAPSDNLPLVDLIEHPDPIFDPKEKDLNETLLRSLLGGHYDPGFMATSPPEDRPGGGGGAAGGAEDLAELDQLLRQRPSGAMPSEIKGLEFSEGLAQGKKQRLSKKLRRKLQMWLWSQTFCPVLYAWNDLGSRFWPRYVKVGSCFSKRSCSVPEGMVCKPSKSVHLTVLRWRCQRRGGQRCGWIPIQYPIISECKCSC
B7: Amphiregulin: human amphiregulin (R&D Systems), medium additive (protein, UniProt P15514 101-187, looked up)
Amphiregulin: SVRVEQVVKPPQNKTESENTSDKPKRKKKGGKNGKNRRNRKKKNPCNAEFQNFCIHGECKYIEHLEAVTCKCQQEYFGERCGEKSMK

System: primary breast tumor epithelial cells isolated from breast cancer tissues (HMFL-XN1, HMFL-XN3, HMFL-XN4, HMFL-XN6, HMFL-XN8)
Experiment: Optimization of primary breast epithelial cell culture medium: cell count after culture with medium additives
Type: cell-based, human
Design: key: +: compared with the basis medium, the medium added with the additive(s) can promote the proliferation of primary breast tumor epithelial cells isolated from at least three cases of breast cancer tissues; −: the medium added with the additive(s) has the effect of inhibiting proliferation of primary breast tumor epithelial cells isolated from at least two cases of breast cancer tissues; ○: the medium added with this additive(s) has no significant effect on the proliferation of primary breast tumor epithelial cells isolated from at least three cases of breast cancer tissues
Settings: additive at the concentration given in Table 1 added to basis medium; cell count after 10 days of culture, compared with basis medium; five breast cancer samples
Experimental: Matrigel (registered trademark) (manufactured by BD Biosciences) was diluted at 1:100 in serum-free DMEM/F12 medium to prepare an extracellular matrix dilution, which was added to a 48-well culture plate with 200 μl/well to completely cover the bottom of the wells of the culture plate. The resultant was let stand for 1 hour in a 37° C. incubator. After 1 hour, the extracellular matrix dilution was removed to provide a Matrigel-coated plate.
First, a basis medium was prepared. To a commercial DMEM/F-12 medium, GlutaMAX-I (manufactured by Thermo Fisher SCIENTIFIC) was added at the specified concentration (1:100 dilution), human insulin (manufactured by Sigma) was added at a final concentration of 10 μg/ml, ROCK kinase inhibitor Y27632 (manufactured by Sigma) was added at a final concentration of 10 μM, and penicillin-streptomycin (manufactured by Thermo Fisher SCIENTIFIC) was added at a 1:100 dilution ratio, which provides the basis medium.
Next, different types of additives (as shown in Table 1) were added to the basis medium to prepare breast epithelial cell culture mediums containing different supplementary components, and the mediums with different components were added at a volume of 500 μl/well to 48-well plates which were coated with extracellular matrix gel (Matrigel). Breast tumor cells (HMFL-XN1) isolated from breast cancer tissue in step (1) of this Example were inoculated in a Matrigel-coated 48-well culture plate at a cell density of 1×10^4 cells/well, and equal numbers of freshly isolated breast tumor cells (HMFL-XN1) were cultured under different medium formulations at 37° C., under 5% CO2 concentration and 20% oxygen concentration. The medium was renewed every 4 days after the start of the culture. After 10 days of culture, cell counts were performed. As an experiment control, the basis medium without any additives was used. Breast tumor cells isolated from the remaining four breast cancer tissue samples were cultured and counted in the same manner as above.

Molecule	Degree of cell
B1	○
B2	○
B3	+
B4	+
B5	○
B6	○
B7	+
